Results reported in patent US20040009165A1.

Target: macrophage mannose receptor on murine macrophage cell line J774E (murine) (UniProt Q61830)
Test: cell-based or functional assay

Row | Vmax for uptake in J774E cells | Substance
1 | 0.871 | pGC54: GCB-GGGG linker-Saposin C fusion protein (enzyme)
2 | 0.518 | Cerezyme (recombinantly produced glucocerebrosidase) (from UniProt P04062 40-536) (enzyme)
